A short description of data set [1]: Reaction of two AGT variants in one sample with CPTG and BG-Bt. It is filed as biochemical. The conditions noted are these: versus His-tagged AGTM. The method, then:
FIG. 2: Western blot of the reaction of wild type hAGT (GST-hAGT fusion protein) and AGTM with the two substrates N^9-cyclopentyl-O^6-bromophenyl-guanine (CPTG) and biotinylated O^6-benzylguanine (BG-Bt, substance 3a of Juillerat et al. 2003) as described in Example 7. BG-Bt is present in all samples at 5 μM. Detection with neutravidin-peroxidase conjugate and luminescent peroxidase substrate detecting any AGT reacted with BG-Bt. Even under simultaneous incubation with identical concentrations of CPTG and BG-Bt only about 5% of GST-hAGT reacts with substrate BG-Bt.
Within the experiment two tags with different size for the two AGT proteins are used: The His-tagged AGTM (˜20 kDa) and GST-hAGT (cloned and prepared as described in Example 1, but starting with the wild type hAGT gene, ˜48 kDa) are diluted to 0.2 μM and 1.2 μM final concentration, respectively, in reaction buffer containing 50 mM HEPES, 1 mM DTT, 200 mg/mL BSA (pH 7.3). The sample is incubated with a mixture of substrates N^9-cyclopentyl-O^6-bromophenyl-guanine (CPTG; 0, 5 and 10 μM final concentrations) and biotinylated O^6-benzylguanine (BG-Bt, 5 μM final concentration) for 30 minutes. The reaction is quenched by addition of SDS-Laemmli buffer and subjected to Western blotting analysis (Example 1). As the two AGT variants have different masses, the two proteins can be separated on an acrylamide gel and analyzed independently. […] At the same concentration (both substrates at 5 μM final concentration), 95% of GST-hAGT reacts with CPTG, versus only 5% of His-tagged AGTM.

A short description of data set [2]: Activity assay with biotinylated O^6-benzylguanine (BG-Bt), Western blotting. It is filed as biochemical. As to conditions: statement in words. The method, then: Activity towards O^6-benzylguanine substrates is measured as described by Juillerat et al., Chem Biol 10:313-317, 2003.
Activity assay: Purified mutated GST-AGT is incubated in vitro with a biotinylated O^6-benzylguanine (BG-Bt, substance 3a of Juillerat et al., Chem Biol 10:313-317, 2003). In a total reaction volume of 80 […]I, 0.2 µM GST-AGT are incubated with 1 µM substrate in 50 mM HEPES pH 7.2 and 1 mM DTT at room temperature. At several points of time an aliquot is quenched with 1 mM O^6-benzylguanine (Sigma) in SDS-Laemmli buffer and subjected to Western blotting analysis (neutravidin-peroxidase conjugate (PIERCE), Renaissance reagent plus (NEN)). The intensity of the corresponding bands is quantified by a Kodak Image Station 440.
(A western blot detects proteins with antibodies after separation by electrophoresis.)

For data set [3], the system named is oligonucleotide SEQ ID NO:2 (modified in position 14). Put plainly: Reactivity against DNA-based substrates (BG-Cy3 assay with BG-modified oligonucleotide). It is filed as biochemical. The conditions noted are these: oligonucleotide SEQ ID NO:2 with O^6-benzyl at position 14; compared to PGEG-hAGT. As for the experimental part: The ability of wild type AGT or mutant AGT to react with alkylated DNA substrates is measured as the reaction of its inactivation by a synthetic oligonucleotide containing O^6-benzylguanine (SEQ ID NO:2, modified in position 14). Subsequently, the reactions are quenched by incubation with biotinylated O^6-alkylguanine. Samples are subjected to Western blotting and detection with streptavidin derivates to obtain kinetic constants for these substrates. Alternatively, the ability of wild type or mutant AGT to react with alkylated DNA substrates is measured via its labeling efficiency in competition with a fluorescent substrate of AGT. The reaction kinetics of AGT with BG-Cy3 (O^6-benzylguanine coupled to Cy3) is followed by fluorescence intensity measurements at various concentrations of a competing synthetic oligonucleotide containing O^6-benzylguanine (SEQ ID NO:2, modified in position 14).
Reactivity against DNA-based substrates measured with a BG-Cy3 assay: BG-Cy3 is prepared by reacting the previously described O^6-(4-aminomethyl-benzyl)guanine (Keppler et al., NatureBiotechnol. 21:86-89, 2003) with the commercially available N-hydroxysuccinimide ester of Cy3, (Cy3-NHS, Amersham). The coupling reaction is performed at ambient temperature in N,N-dimethylformamide in the presence of 1 eq. of triethylamine. The BG-Cy3 conjugate is purified by reversed-phase HPLC on a C18-column by using linear gradients from 0.1% trifluoroacetic acid to acetonitrile. After solvent evaporation BG-Cy3 is dissolved in dimethyl sulfoxide and stored at −20° C. For measuring the reactivity with DNA-based substrates, a reaction mixture containing different concentrations (0 to 5 µM) of oligonucleotide SEQ ID NO:2 (modified in position 14), GST-AGT fusion protein at 0.2 µM and BG-Cy3 at […] in reaction buffer (50 mM HEPES, pH 7.2, 1 mM DTT, 200 mg/ml BSA) is incubated in microtiterplates. Fluorescence of the Cy3 derivative (excitation 519 nm, emission at 572 nm) is measured on a Spectramax Gemini plate reader (Molecular Devices).

Data set [4] in a line: Competition of N^9-substituted and N^9-unsubstituted O^6-benzylguanine substrates. It is filed as biochemical. The method, then:
Such N^9-substituted O^6-alkylguanine substrates are the natural substrates of the wild type AGT. The ability of wild type AGT or mutant AGT to react with N^9-modified O^6-alkylguanine substrates is measured as the rate of its reaction with such substrates, e.g. with the low molecular weight N^9-cyclopentyl-O^6-benzylguanine in presence of biotinylated N^9-unsubstituted O^6-alkylguanine substrates in competition experiments. Subsequently, samples are subjected to Western blotting and detection with streptavidin derivates to obtain kinetic constants for these substrates. Alternatively, the reactivity towards such substrates is measured as the inhibition of the reaction of AGT with BG-Cy3. The reaction of AGT with BG-Cy3 is followed by an increase of Cy3 fluorescence intensity upon binding to AGT, after preincubation or in direct competition with the N^9-modified O^6-alkylguanine substrate.
Selected AGT mutants are subcloned into pGEX2T, expressed, purified and characterized as described in Example 1. Discrimination between N^9 substituted and N^9 unsubstituted O^6-benzylguanine substrates is evaluated by competition experiments for purified mutated GST-AGT in vitro with N^9-substituted and N′-unsubstituted O^6-benzylguanine. Aliquots of 0.2 μM GST-AGT are incubated with varying concentrations of N^9 substituted substrate (0, 0.5, up to 100 µM) and 0.5 µM biotinylated O^6-benzylguanine (BG-Bt, substance 3a of Juillerat et al., Chem Biol 10:313-317, 2003) in 50 mM HEPES pH 7.3 and 1 mM DTT at room temperature. After 45 min reactions are quenched by the addition of SDS-Laemmli buffer and heat denaturation. Samples are subjected to SDS-PAGE and Western blotting analysis (neutravidin-peroxidase conjugate (PIERCE), Renaissance reagent plus (NEN)). The intensity of the corresponding bands is quantified by a Kodak Image Station 440.

Data set [5] can be described thus: Expression yield of soluble GST-AGT fusion protein. More on the design: species or system E. coli. The conditions noted are these: comparator not stated. As for the experimental part:
Expression yield is measured in E. coli or in any other of the standard production cells for genetically modified proteins, e.g. yeast, or preferably insect cells, CHO cells or HeLa cells. For quantifying expression yield, AGT fusion proteins may be chosen such that the fusion partner allows easy purification and quantification. For example, expression yield in E. coli is determined by measuring and comparing the yield of soluble and insoluble GST-wild type AGT fusion protein and GST-mutant AGT fusion protein from parallel E. coli expression cultures. Samples of the soluble fractions and insoluble fractions (i.e. the inclusion bodies) after cell lysis are subjected to SDS-PAGE, and the band staining intensities of the corresponding AGT fusion proteins are compared. Soluble protein is quantified after purification of the fusion protein from cell extracts by affinity chromatography (e.g. for GST-AGT fusion proteins by glutathione sepharose) by subjecting the purified fractions to a protein concentration assay (Bradford, Anal Biochem 72:248-54, 1976). The expression yield of similar proteins in the soluble fraction (difference in point mutations) can be used as a measure for protein stability in the unpurified as well as the purified state (Ohage et al., J Mol Biol 291:1119-1128, 1999; Wirtz et al., Protein Sci 8: 2245-50, 1999). Therefore, this is taken as a measure of folding stability and aggregation tendency.
Protein expression from this vector is carried out in E. coli strain BL21. An exponentially growing culture is induced with 0.5 mM IPTG, and the expression is carried out for 3.5 h at 24° C.
Purification: The harvested cells are resuspended in a buffer containing 50 mM phosphate, 0.5 M NaCl, 1 mM DTT, supplemented with 1 mM PMSF and 2 μg/ml aprotinin, and disrupted by lysozyme and sonification. The cell debris are separated by centrifugation at 40000×g. The extract is applied to pre-equilibrated glutathione sepharose (Amersham) which is then washed with 20 bed volumes (50 mM phosphate, 0.5 M NaCl, 1 mM DTT). The mutated GST-AGT fusion protein is eluted with 10 mM reduced glutathione in 50 mM Tris·HCl pH 7.9. The purified protein is dialyzed against 50 mM HEPES pH 7.2; 1 mM DTT; 30% glycerol and then stored at −80° C.
Determination of protein yield: Purity and relative amounts of the GST-AGT fusion proteins are compared by running samples on SDS-PAGE. UV spectra of the pure fractions are recorded using a Perkin Elmer Lambda 10. For protein samples containing no significant amount of DNA, the extinction at 280 nm as a measure of protein content is compared to that of wild type hAGT or PGEG-hAGT that were purified under the same conditions.

Entries after “also recorded” stand apart in the source; their conditions may differ.

With `Nc1nc(OCc2cc(Br)cs2)c2ncn(C3CCCC3)c2n1` [CPTG, reference compound], the “specificity of CPTG towards GST-hAGT” value in data set [1] is given as “high specificity”.

B1: Gly131Lys, Gly132Thr, Met134Leu, Arg135Ser, Asn157Gly, Ser159Glu: hAGT mutant with the listed mutations, selected by phage display (protein, UniProt P16455 1-207, looked up, variant G131K G132T M134L R135S N157G S159E)
Methylated-DNA--protein-cystei …: MDKDCEMKRTTLDSPLGKLELSGCEQGLHEIKLLGKGTSAADAVEVPAPAAVLGGPEPLMQCTAWLNAYFHQPEAIEEFPVPALHHPVFQQESFTRQVLWKLLKVVKFGEVISYQQLAALAGNPKAARAVKTALSGNPVPILIPCHRVVCSSGAVGGYEGGLAVKEWLLAHEGHRLGKPGLGGSSGLAGAWLKGAGATSGSPPAGRN
Turning to B1, the “activity towards O^6-benzylguanine substrates” value in data set [2] is recorded as “at least twofold further increased activity; also recorded: increased reactivity”. Also, the “reduction of reactivity with oligonucleotides” value in data set [3] is reported as “at least 1000 fold”. In addition, the “reduced reactivity towards O^6-alkyl-N^9-deoxyribosylguanine or N^9-cyclopentyl-O^6-benzylguanine” value in data set [4] (comparator not stated) is listed as “substantially reduced reactivity”. Also, the “reduction of reactivity towards O^6-alkyl-N^9-deoxyribosylguanine or N^9-cyclopentyl-O^6-benzylguanine” value in data set [4] (compared to PGEG-hAGT) is recorded as “at least 10 fold”. Moreover, in data set [5], the “expression yield in E. coli” value is reported as “increased expression yield”.
